Experiment: yeast display, Sf9 membrane polyspecificity reagent, FACS + sequencing; frameworks hold sequencing errors
Outline: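 Polyreactivity labels are assigned by the sorting gate from which each nanobody was recovered. The gates were low and high (top ~1%), set on anti-HA fluorescence for expression and streptavidin fluorescence for reagent binding. Before sorting, galactose-induced (36–48 hours) yeast display cells were stained for 1 hour at 4 °C with 10% biotinylated, detergent-solubilized Sf9 membrane reagent.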

Sequence | polyreactivity (PSR sort gate)
QVQLVESGGGLVQAGGSLRLSCAASGFIFEWYTMGWYRQAPGKERELVARISSDGSTTYADSVKGRFTISRDNAKNTVYLQMNSLNPEDTAVYYCAADVTYPGLIYIYDYWGQGTQVTVSS | low polyreactivity
QVQLVESGGGLVQAGGSLRLSCAASGFIFEYNAMGWYRQAPGKERELVAAITSSGGSTYYADSVKGRFTISRDNAKNTVYLKMYSLKPEDTAVYYCARVRRSAYYKDYYYWGQGTQVTVSS | high polyreactivity
QVQLVESGGGLVQAGGSLRLSCAASGFIFEYYAMGWYRQAPGKERELVAAISNGGGRTYYADSVKGRFTISRDNAKNTVYLQMNSLKPEDTAVYYCAAYWVYQRNSRTWEYDYWGQGTQVTVSS | high polyreactivity
QVQLVESGGGLVQAGGSLRLSCAASGFIFEYYAMGWYRQAPGKERELVAAISRGGRTNYADSVKGRFTISRDNAKNTVYLQMNSLKPEDTAVYYCARDYTFYRQVRKYGYWGQGTQVTVSS | high polyreactivity
QVQLVESGGGLVQAGGSLRLSCAASGFIFFKYVMGWYRQAPGKERELVAAISTTGGRTYYADSVKGRFTISRDNAKNTVYLQMNSLKPEDTAVYYCAADYPVWNHGFDYWGQGTQVTVSS | high polyreactivity
QVQLVESGGGLVQAGGSLRLSCAASGFIFFQYAMGWYRQAPGKERELVAAISGSGVTTYYADSVKGRFTISRDNAKNTVYLQMKSLKPEDTPVYYCAARPSGRGYYLLGYWGQGTQVTVSS | low polyreactivity
QVQLVESGGGLVQAGGSLRLSCAASGFIFFRNAMGWYRQAPGKERELVAAISSNGGRTYYADSVKGRFTISRDNAKNTVYLQMNSLTPEDTAVYYCAAANPGSEYDYWGQGTQVNVSS | high polyreactivity
QVQLVESGGGLVQAGGSLRLSCAASGFIFFRYAMGWYRQAPGKERELVAAISSSGGSTYYADSVKGRFTISRDNAKNTVYLQMNSLKPEDTAVYYCAAPRYRIFVGLGMDYWGQGTQVTVSS | high polyreactivity
QVQLVESGGGLVQAGGSLRLSCAASGFIFFRYAMGWYRQAPGKERELVAAISTRTGITYYADSVKGRFTISRDNAKNTVYLQMNSLKPEDTAVYYCNVLRSHSLYPFWKYDYWGQGTQVTVSS | high polyreactivity
QVQLVESGGGLVQAGGSLRLSCAASGFIFGANAMGWYRPAPGKESELVAAISWNGGRTYYADSVKWRFTISRDNAKNTVYLQMNSLKPEDTAVSYCAATGWYGLPTSYRVNYWGQGTQVTVSS | high polyreactivity
QVQLVESGGGLVQAGGSLRLSCAASGFIFGANTMGWYRQAPGKERELVATISWSGGSTYYADSVKGRFTISRDNAKNTVYLQMNSLKPEDTAVYYCAAPGVTYGFRSDYWGQGTQVTVSS | low polyreactivity
QVQLVESGGGLVQAGGSLRLSCAASGFIFGAYAMGWYRQAPGKERELVAAITKSGGRTYYADSVKGRFTISRDNAKNTVYLQMNSLKPEDTAVYFCAAVTRYPREYDYWGQGTQVTVSS | high polyreactivity
QVQLVESGGGLVQAGGSLRLSCAASGFIFGAYAMGWYRQAPGKERELVAAITRSGGNTYYADSVKGRFTISRDNAKNTVYLQMNSLKPEDTAVYYCNVVGVYHYEDYYYWGQGTQVTVSS | high polyreactivity
QVQLVESGGGLVQAGGSLRLSCAASGFIFGFYAMGWYRQAPGKERELVAAITSDGGTYYADSVKGRFTISRDNAKNTVYLQMNSLKPEDTAVYYCAADVLYEVFSWYVGYDYWGQGTQVTVSS | low polyreactivity
QVQLVESGGGLVQAGGSLRLSCAASGFIFGGYARGWYRQAPGKEREFVAAIRQRGGSTYYADSVKGRFTISRDNAKNTVYLQMNSLKPEDTAVYYCAAEPNTQWFDYWGQGTQVTVSS | high polyreactivity
QVQLVESGGGLVQAGGSLRLSCAASGFIFGHYVMGWYRQAPGKERELVAAISVGGGRTYYADSVKGRFTISRDNAKNTVYLQMNSLKPEDTAVYYCRSYGYDYWGQGTQVTVSS | high polyreactivity
QVQLVESGGGLVQAGGSLRLSCAASGFIFGKFAMGWYRPAPGKERELVAAITSDGRTYYADSVKGRFTISRDNAKNTVYLQMNSLKPEDTAVYYCAVDYYWYWYSGYDDYWGQGTQVTVSS | high polyreactivity
QVQLVESGGGLVQAGGSLRLSCAASGFIFGNYVLGWSRQAPGKERELVAAISESGSRTYYADSVKGRFTISRDYAKKTVYLQMNSLKPEDTAVYYCAAALFSYYGEYDYWGQGTQVTVSS | low polyreactivity
QVQLVESGGGLVQAGGSLRLSCAASGFIFGPNAMGWYRQAPGKERELVAAISWIGSSTYYADSVKGRFTISRDNAKNTVYFQMNSLKPQDTAVYYCAADSSERRLMDFDYWGQGTQVTVSS | low polyreactivity
QVQLVESGGGLVQAGGSLRLSCAASGFIFGQNDMGWYRQAPGKERELVAAISSDGSTYYADSVKGRFTISRDNAKNTVYLQMNSLKPEDTAVYYCAAEYSWYYYYLYVGEYDYWGQGTQVTVSS | low polyreactivity
QVQLVESGGGLVQAGGSLRLSCAASGFIFGRYAMGWYRQAPGKERELVAAITRSGGTTYYADSVKGRFTISRDNAKKTVYLQMYSLKPEDTAVYYCAAPRIYYTDDYWGQGTQVTVSS | high polyreactivity

Sequence | polyreactivity (PSR sort gate)
QVQLVESGGGLVQAGGSLRLSCAASGFIFGRYTMGWSRQAPGKEGELVAAISGSDVSTYYADSVKGRFTISRDNAKNTVYLQLNSVKPEDTAVYYCAADAPWAYYEYDYWGQGTQVTVSS | low polyreactivity
QVQLVESGGGLVQAGGSLRLSCAASGFIFGSNAMGWYRQAPGKERELVATITKRGGTTYYADSVKGRFTISRDNAKNTVYLQMNSLKPEDTAVYYCNRSGPGFYSTRFNYWGQGTQVTVSS | high polyreactivity
QVQLVESGGGLVQAGGSLRLSCAASGFIFGSYAMGWYRQAPGKERELVAAITSSGITYYADSVKGRFTISRDNAKNTVYLQMNSLKPEDTAVYYCAAEGSTYQGAPGVYYWGQGTQVTVSS | high polyreactivity
QVQLVESGGGLVQAGGSLRLSCAASGFIFGSYTMGGYRQAPGTERELVAVITCSGSSTYYADSVKGRFTISRDNAKNTVYLQMNSLKPADTAVYYCNAVKFGGYDYWGQGTQVTVSS | high polyreactivity
QVQLVESGGGLVQAGGSLRLSCAASGFIFGVYAMGWYRQAPAKERELDAAISYRTGTTYYADSVKGRFTISRDNAKNTVYLQMNSLKPEDTAVYYCAAKSRAAVRKYGSEYWGQGTQVTVSS | high polyreactivity
QVQLVESGGGLVQAGGSLRLSCAASGFIFGVYPMGWYRQAPGKERELVAAISRSGGSTYYADSVKGRFTISRDSAKNTVYLQMNSLNPEDTAVYYCATHVSLYGKGYYYWGQGTQVTVSS | high polyreactivity
QVQLVESGGGLVQAGGSLRLSCAASGFIFGWNAMGWYRQAPGKVREFVAAITSSGTSTYYADSVKGRFTISRDNAKNTVYLQMNSLKPEDTAVYYCAADVIFTWLAYSTEYDYWGQGTQVTVSS | low polyreactivity
QVQLVESGGGLVQAGGSLRLSCAASGFIFGYNAMGWYRQAPGKERELVAAISGSGGRTYYADSVKGRFTISRDNAKNTVYLQMNSLIPEDTAVYYCAVADRRGLGYWGQGTQVTVSS | high polyreactivity
QVQLVESGGGLVQAGGSLRLSCAASGFIFGYNAMGWYRQAPGKERELVASITYRGGRTYADSVKGRFTISRDNAKNTVYLQMNSLKPEDTAVYYCAAVRHVYVGGFDYWGQGTQVTVSS | high polyreactivity
QVQLVESGGGLVQAGGSLRLSCAASGFIFGYYAMGWYRQAPGKEREFVAAISARSGRTYYADSVKGRFTISRDNAKNTVYLQMNSLKPEDTAVYYCNTAYAYSGRYDYWGQGTQVTVSS | high polyreactivity
QVQLVESGGGLVQAGGSLRLSCAASGFIFGYYAMGWYRQAPGKERELVAAISSGSITTYADSVKGRFTISRDNAKNTVYLQMNSLKPEDTAVYYCNAVRWFFTFVSSSSGVGHGYWGQGTQVTVSS | low polyreactivity
QVQLVESGGGLVQAGGSLRLSCAASGFIFGYYAMGWYRQAPGKERELVAAISSRGGSTYYADSVKGRFTISRDNAKNTVYLQMNSLIPEDTAVYYCAVRLVSFRHNFGQYDYWGQGTQLTVSS | high polyreactivity
QVQLVESGGGLVQAGGSLRLSCAASGFIFGYYAMGWYRQAPGKERELVAGISWGGARTYYADSVKGRFTISRDNAKNTVYLQMNSLKPEDTAVYYCAATHYGHSISYWFDYWGQGTQVTVSS | high polyreactivity
QVQLVESGGGLVQAGGSLRLSCAASGFIFHPYAMGWYRQAPGKERELVAAISWSGDGTYYADSVKGRFTISRDNAKNTVYLQMNSLKPEDTAVYYCNAGFYRSYYKSPMGYWGQGTQVTVSS | low polyreactivity
QVQLVESGGGLVQAGGSLRLSCAASGFIFHRYAMGWYRQAPGKERELVASITRSGGSTYYADSVKGRFTISRDNAKNTVYLQMNSLKPEDTAVYYCAAQLPSYYKYPRHDYWGQGTQVTVSS | high polyreactivity
QVQLVESGGGLVQAGGSLRLSCAASGFIFHVYAMGWYRQAPGKERELVARITSSGGNTFYADSVKGRFTISRDNAKNTVYLQMNSLKPEDTAVYYCAKRYRYSVGWPVKNSAFGYWGQGTQVTVSS | low polyreactivity
QVQLVESGGGLVQAGGSLRLSCAASGFIFHYNAMGWYRQAPGKERELVAAISARGGGTYYADSVKGRFTISRDNAKNTVYLQMNSLKPEDTAVYYCAAGNYPLGDGYWGQGTQVTVSS | high polyreactivity
QVQLVESGGGLVQAGGSLRLSCAASGFIFHYYAMGWYRQAPGKERELVAAISSGGGRTYYADSVKGRFTISRDNAKNTVYLLMNSLKPEDTAVYYCAARYAVNAWGGRRDYWGQGTEVTVSS | high polyreactivity
QVQLVESGGGLVQAGGSLRLSCAASGFIFIINAMGWYRQAPGKERELVAGIRWSGGSTYYADSVKGRFTISRDNAKNTVYLQMNSLKPEDTAVYYCNKDRGSLTLYTYDYWGQGTQVTVSS | low polyreactivity
QVQLVESGGGLVQAGGSLRLSCAASGFIFIIYAMGWYRQAPGKERELVAGIRWSGGSTYYADSVKGRFTISRDNAKNTVYLQMNSLKPEDTAVYYCIKDRGSLTLYTYDYWGQGTQVTVSS | low polyreactivity

Reference: the nanobody polyreactivity screen of Harvey et al. (2022)
